This note sets out measurements from article PMC10889563, “The Multienzyme Complex Nature of Dehydroepiandrosterone Sulfate Biosynthesis” (International Journal of Molecular Sciences, 2024).

Sequences and labels used below:
B2: sulfotransferase SULT1E1 (enzyme, human, UniProt P49888 1-294, looked up)
chain: MNSELDYYEKFEEVHGILMYKDFVKYWDNVEAFQARPDDLVIATYPKSGTTWVSEIVYMIYKEGDVEKCKEDVIFNRIPFLECRKENLMNGVKQLDEMNSPRIVKTHLPPELLPASFWEKDCKIIYLCRNAKDVAVSFYYFFLMVAGHPNPGSFPEFVEKFMQGQVPYGSWYKHVKSWWEKGKSPRVLFLFYEDLKEDIRKEVIKLIHFLERKPSEELVDRIIHHTSFQEMKNNPSTNYTTLPDEIMNQKLSPFMRKGITGDWKNHFTVALNEKFDKHYEQQMKESTLKFRTEI
notes: cytosolic sulfotransferase SULT1E1, human, recombinant; The oligomeric state in the assay is not known to the authors; source: E. coli DH5α, purified (Ni-NTA agarose, hydroxyapatite)

Conditions in all cases: both partners purified
The target in test [1] is B2. The experiment in a line: SPR; SULT1E1 or SULT2A1 covalently immobilised on CM5 chip via amino groups; CYP17A1full or CYB5A injected at 50 to 5000 nM in HBS-EP+, 25 °C; with 1 mM PAPS; 1:1 Langmuir model. (In general: SPR reads the build-up and loss of mass on a sensor chip optically.)
Test [2] has as its target B2. The experiment in a line: SPR; SULT1E1 or SULT2A1 covalently immobilised on CM5 chip via amino groups; CYP17A1full, CYP17A1tr or CYB5A injected at 50 to 5000 nM in HBS-EP+ (10 mM HEPES, 150 mM NaCl, 3 mM EDTA, 0.05% P20, pH 7.4), 25 °C; no PAPS; 1:1 Langmuir model.
Test [3] has as its target T1, full-length steroid 17-alpha-hydroxylase/17,20-lyase (CYP17A1full) (UniProt P05093 1-508).
T1 construct: steroid 17-alpha-hydroxylase/17,20 lyase (CYP17A1), full-length recombinant form; also called full-length CYP17A1
T1 sequence (looked up): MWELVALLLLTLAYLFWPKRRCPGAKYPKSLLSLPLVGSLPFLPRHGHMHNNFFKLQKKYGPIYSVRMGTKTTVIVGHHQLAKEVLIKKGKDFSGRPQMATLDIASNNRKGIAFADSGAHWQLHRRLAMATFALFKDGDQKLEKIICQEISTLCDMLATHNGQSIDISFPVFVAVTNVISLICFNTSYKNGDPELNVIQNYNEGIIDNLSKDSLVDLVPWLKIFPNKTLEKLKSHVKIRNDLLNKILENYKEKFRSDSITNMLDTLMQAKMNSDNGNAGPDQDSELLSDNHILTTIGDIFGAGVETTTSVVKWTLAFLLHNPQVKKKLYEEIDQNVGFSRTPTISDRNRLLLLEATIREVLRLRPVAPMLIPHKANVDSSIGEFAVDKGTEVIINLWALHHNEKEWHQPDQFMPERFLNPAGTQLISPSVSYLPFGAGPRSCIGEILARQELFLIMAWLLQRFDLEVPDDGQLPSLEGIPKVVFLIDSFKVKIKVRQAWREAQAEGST
The experiment in a line: SPR; SULT1E1 or SULT2A1 covalently immobilised on CM5 chip via amino groups; CYP17A1full or CYB5A injected at 50 to 5000 nM in HBS-EP+, 25 °C; with 1 mM PAPS; 1:1 Langmuir model.

For test [4], the target named is T1, full-length steroid …. The test can be described thus: SPR; SULT1E1 or SULT2A1 covalently immobilised on CM5 chip via amino groups; CYP17A1full, CYP17A1tr or CYB5A injected at 50 to 5000 nM in HBS-EP+ (10 mM HEPES, 150 mM NaCl, 3 mM EDTA, 0.05% P20, pH 7.4), 25 °C; no PAPS; 1:1 Langmuir model.
Test [5] concerns the target T2, NADPH-dependent cytochrome P450 reductase (CPR) (UniProt P16435 1-677, FAD and FMN cofactors; species (human assumed, rat possible) and construct limits are only in Figure S5 or cited work). The test can be described thus: SPR; CPR covalently immobilised on CM5 chip via amino groups; SULT1E1 or SULT2A1 as analyte; HBS-EP+, 25 °C; no PAPS; 1:1 Langmuir model.
Test [6] addresses T2, NADPH-dependent cytochrome P450 …. The test can be described thus: SPR; CPR covalently immobilised on CM5 chip via amino groups; SULT1E1 or SULT2A1 as analyte; HBS-EP+, 25 °C; with 1 mM PAPS; 1:1 Langmuir model.

Usually Kd stands for the free concentration of one partner at which half of the binding sites on the other are occupied at equilibrium, for simple one-to-one binding. A higher Kd goes with a looser complex. What is called koff is the rate constant with which the complex falls apart. The low end stands for slow dissociation, the high end for fast dissociation. As usually defined, the kon is the second-order rate constant of association.

T2 sequence (P16435 whole entry): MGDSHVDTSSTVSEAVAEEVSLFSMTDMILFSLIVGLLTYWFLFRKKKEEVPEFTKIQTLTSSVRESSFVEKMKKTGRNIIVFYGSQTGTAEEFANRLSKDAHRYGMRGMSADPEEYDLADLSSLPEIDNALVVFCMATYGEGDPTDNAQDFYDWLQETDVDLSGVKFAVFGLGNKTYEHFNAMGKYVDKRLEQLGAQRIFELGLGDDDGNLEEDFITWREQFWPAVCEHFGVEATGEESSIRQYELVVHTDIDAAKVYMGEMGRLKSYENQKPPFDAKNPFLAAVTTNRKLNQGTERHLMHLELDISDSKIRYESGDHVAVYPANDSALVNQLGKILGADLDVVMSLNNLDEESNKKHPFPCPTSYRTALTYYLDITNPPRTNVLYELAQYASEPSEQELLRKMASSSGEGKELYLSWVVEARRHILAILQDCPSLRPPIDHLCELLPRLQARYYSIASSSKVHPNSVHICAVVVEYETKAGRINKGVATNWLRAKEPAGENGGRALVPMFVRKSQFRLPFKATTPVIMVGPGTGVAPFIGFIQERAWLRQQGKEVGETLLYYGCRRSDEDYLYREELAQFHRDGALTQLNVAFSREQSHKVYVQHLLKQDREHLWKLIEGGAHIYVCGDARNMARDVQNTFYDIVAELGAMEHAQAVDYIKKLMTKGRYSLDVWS

B1: microsomal cytochrome b5 (CYB5A) (natural protein, UniProt P00167 1-134, looked up)
chain: MAEQSDEAVKYYTLEEIQKHNHSKSTWLILHHKVYDLTKFLEEHPGGEEVLREQAGGDATENFEDVGHSTDAREMSKTFIIGELHPDDRPKLNKPPETLITTIDSSSSWWTNWVIPAISAVAVALMYRLYMAED
notes: microsomal cytochrome b5 (CYB5A), recombinant
Take B1: in the test with sulfotransferase SULT1E1 [1], the Kd worked out at 88 ± 8 nM, the off-rate (koff) was determined as 0.00067 s⁻¹ and the kon was 7650 M⁻¹ s⁻¹. In the test with sulfotransferase SULT1E1 [2], this molecule displayed an equilibrium dissociation constant (Kd) of 71 ± 8 nM, a koff of 0.00098 s⁻¹ and an on-rate constant (kon) of 13800 M⁻¹ s⁻¹.

In test [3], B2 came in with a Kd of 138 ± 15 nM, an off-rate constant (koff) of 0.00076 s⁻¹ and an association rate constant (kon) of 5520 M⁻¹ s⁻¹. In test [4], this molecule gave a Kd of 196 ± 21 nM, an off-rate (koff) of 0.00058 s⁻¹ and an on-rate constant (kon) of 2960 M⁻¹ s⁻¹.

B3: sulfotransferase SULT2A1 (enzyme, human, UniProt Q06520 1-285, looked up)
chain: MSDDFLWFEGIAFPTMGFRSETLRKVRDEFVIRDEDVIILTYPKSGTNWLAEILCLMHSKGDAKWIQSVPIWERSPWVESEIGYTALSETESPRLFSSHLPIQLFPKSFFSSKAKVIYLMRNPRDVLVSGYFFWKNMKFIKKPKSWEEYFEWFCQGTVLYGSWFDHIHGWMPMREEKNFLLLSYEELKQDTGRTIEKICQFLGKTLEPEELNLILKNSSFQSMKENKMSNYSLLSVDYVVDKAQLLRKGVSGDWKNHFTVAQAEDFDKLFQEKMADLPRELFPWE
notes: cytosolic sulfotransferase SULT2A1, human, recombinant; source: E. coli Rosetta, purified (Ni-NTA agarose, hydroxyapatite)
Take B3: the Kd in test [5] is 1370 ± 126 nM; in test [6], 957 ± 89 nM; in test [3], 105 ± 12 nM; in test [4] it was 124 ± 11 nM. The koff in test [5] turned out to be 0.00078 s⁻¹; in test [6], 0.00051 s⁻¹; in test [3], 0.00137 s⁻¹; in test [4] it was 0.00055 s⁻¹. Moreover, the kon was determined as 570 M⁻¹ s⁻¹ in test [5], 670 M⁻¹ s⁻¹ in test [6], 13100 M⁻¹ s⁻¹ in test [3] and 4450 M⁻¹ s⁻¹ in test [4].
